We go through three molecules from PMC5560242.

Like-named read-outs stand apart in the source and are kept apart here.

Data set [1] addresses T1, MBNL1-zf12 (Homo sapiens, UniProt Q9NR56 1-92).
T1 sequence: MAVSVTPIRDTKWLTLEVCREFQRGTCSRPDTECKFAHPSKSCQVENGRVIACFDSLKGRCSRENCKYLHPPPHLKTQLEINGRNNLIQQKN
The data set is described as follows: BLI. On the technique in general: Biolayer interferometry detects binding as a change in optical thickness at a sensor tip.

Data set [2] addresses T1, MBNL1-zf12. The data set is described as follows: NMR HSQC titration.
In data set [3] the target is T1, MBNL1-zf12. The data set is described as follows: BLI. The source holds these as a separate data set.

Take GUCUCGCUUUUCCCC (ssRNA) [hcTnT15]: the affinity with MBNL1-zf12 [1], expressed as Kd, was 130 nM.
In the case of CUCGCUUUUCCCC (ssRNA) [hcTnT13], in the data set with MBNL1-zf12 [2], the binding result is reported as “binds”.
With GUCUCGCUGUUCCCC (ssRNA) [hcTnT15m (U103G)], the Kd (usually a measure of binding affinity in units of concentration) in the data set with MBNL1-zf12 [3] turned out to be 500 nM.
